Assay: soluble on expression in E. coli; label from the status in PepcDB or PDB records

Soluble on expression in E. coli, not soluble:
MSLNLQSKKRAWIVGKEHYDLGNDLFSRMLDPYMQYSCAYWKDADTLEAAQQAKLKLICEKLQLQPGMRVLDIGCGWGGLSQYMATHYGVSVVGVTISAEQQKMAQTRCEGLDVSILLEDYRDLNDQFDRIVSVGMFEHVGPKNYNTYFEVVDRNLKPDGLFLLHTIGSKKTDHNVDPWINKYIFPNGCLPSVRQIAEASESHFVMEDWHNFGADYDTTLMAWHERFINAWPEIAGNYNERFKRMFSYYLNACAGAFRARDIQLWQVVFTRGVENGLRVPREGHHHHHH, MSYEMNSLFSSNQQPLGGGPPPQQQSQQQQQPPQSLWSLQQFSQMGAPDNFGNHAVPFMPTLGMLNQYQNPHPLQMVPPQPLVTPSQVLPPSMAEQQRADTIHGFGVLTWLSAKAGLITCKDKMIISFQLKDFCDQMLNDLTSVLRVGFTLSFHAALNETSEYTATIVSPIYGPDADVLFANSQEVDLEAANPTPPNSKDAYSPALEQKAIPALLAIFQRHGLQQIQLSRSFSLHSQMSNCGDDELFRYVGTSSLKRRQFVERRTHLFRLQNDDSIILQYPAVYQAVYQLASYLLRRGGATSIQSLFDYYGSPDIMPEVRSHTGEGRQDFLNLLTAHNWVFALFPNRTYVSVRRNLPNYDYVGFIKQHFQEMDITRSQQMAYGQPPRGIQRTMSAQMGSSFATGRPQNLLMQHQHAMTPAATRSGSLWDSQSSLSQSGNSGDQWSPLFSPSTWSNNTNANPRLTSLTPLSSMNETLLSGVNYNSLLAMPPSAKNERSIGVQADDFLDRMSYNPIGRTGCTCQCQCGRGGAAIIGNTRGSSSRASGGSASPPSADGASQIDRFSPSNHAGSIGDRTLTAAALGVGLVDQQPAAPNHDGSANQPQRYYDPFGTADLLNGTRLNSLRIGN, MSEKIRVLLYYKYVSIENAQEYAAKHLEFCKSIGLKGRILIADEGINGTVSGDYETTQKYMDWVHSDERFADLWFKIDEENQQAFRKMFVRYKKEIVHLGLEDNNFDSDINPLETTGEYLNPKQFKEALLDEDTVVLDTRNDYEYDLGHFRGAIRPDIRNFRELPQWVRDNKDKFMEKRVVVYCTGGVRCEKFSGWMVREGFKDVGQLHGGIATYGKDPEVQGELWDGAMYVFDDRISVPINHVNPTVISKDYFDGTPCERYVNCANPFCNKQIFASEENETKYVRGCSPECRAHERNRYVQENGLSRQEWAERLEAIGESLPEFVGA, MGSDKIHHHHHHMRFDLIDLRLFLHILETGSITHGAARANMSLPSASARLRGMEDALGMPLLERGRRGVESTPTGDTLAHHARLVLGQIERMQGELGEHQEGRKACIRLWTNTAAITEFLPAAIGLFLRDHPNVQIDLKERQSSETVKAVLSGAAEIGIISDAVEHGALQTFPFAIDKLVLVTSRDDALATCRRTTLAEVADREFIGLSADSALQAYLGERALLAGQPLSFRTHVRTFDAVCCMVDQGAGVGIVPATAAKRYRGTPGIRTIELTDSWATRQLLICMRDLNAMARPEKALVRHLAGI, MGSDKIHHHHHHMQQNTNVDPQEIAKFERMAETWWDLNGEFKPLHLLNPLRLNYIDQTAGGIFGKKVLDVGCGGGILSESMARIGAIVDGLDMGEEPLEVARLHALETGVSINYVKNTAEAHREDHREYYDVVTCMEMLEHVPDPQSVIQACCDMVKPGGFVFFSTINRNVRSFVETIIGAEYLLKMLPIGTHDHNKFIKPSELIDLVDNTELICKDALGITYNPLTGIFKYTSKVDVNYMIATQKVD, METKYAFARQIIKEAGLFIKSKMSEQLDIQVKTQFDDLVTNVDQETQQLLMDRIHQTYPCDAILAEENDVRHPINQGNVWVIDPIDGTVNFIVQGSQFAVMIAYYEQGIGQFGLIYDVMADQLLAGGGDFEVTLNGDKLPAYQEKPLERSLIGCNAGMFARNDRNLAHLIAKTLGVRVYGGAGICMVKVMKQELLAYFSFIQPWDYAAAKVLGDKLGYVLLTIDGYEPDFQTRQKIMFVPKCQLTRIASFLTKDSAITLEDQ, MAHHHHHHMKAGKSGHRIYVGNIPGSMSKQEIIKAFEEFGKITEIDIKYNRNTNGTNYAFIEYESYKSAEKTIENKNGQKLKGYMLKVEYSIDKKNKEGGDLIALGGREAVSKGLLTNVRLPKNRSHYRVVVKNFPRKKIKLDGIKTFLMKAGKVIYTQLEDEITIAEYDCREGMLRAVNTLDRTMFNSTRKVYVRVLKDLPYDDSDADDSAQGCR, MGSDKIHHHHHHMKSIIHSTENNNFYLYDTQRILSMLIHPELKKIHEKSTDINIDAYYLKKYSYLVNHGFFGEAKPFEFKANISENSIKENITQTKVIVFEITDYCNLKCKYCSLGDLYNFSKKESKNINIKYALNFLRYIFNVKHKKTKLTISFFGGEPLVNFPAIQQIIEEAKLLNKNKKLDLMFNMTTNATLIHKYIDFIVENNIELLISFDGNEKAHSYRTYASNNKNSFHDVLMNTDMIKLKHPSYFDKYVNFNAVLNNRNSIKGIYEFIYNRYGKIPRISQLSSDHINLNKKNIFDDIFHSRKISEKEFQKEGSDVLPIVSNRLIPFNESKKFLKHYSLNLYLSNTLYLLYDLIDSFPTGTCLPFQTRIFLNTHNNLLPCEKVSYKNFLGKVNDHVFINIPEIVQRYNSYYVHCKKVCQYCYGGRACSTCLLSLDNLDQLGVEEFVCPDFQNQKTFEDKLNRIFSYLEKCPSEFFQIINHLITE, MGSDKIHHHHHHMNSSQVLDVKRVLAVLEEQVFQSTGRYLTEVEKVLIKGVWDSKDYKEMASDSGYNAYYLQQKVAPPLWSMLSVIIGDGVKVTKISLKSILLKLAKSDYRKEEASRLDNDSFVGNIRIHGELPKIKSFYGRKDEINYFKKQITLFKERCIVFTGVGGIGKTLLASRLVEEITFDSLSSIYECIIWKTINHSLSIDELVIDLNKIFQVDIEASENSFIDSISLLSKQLHLHRCLLVIDGFEKLLLADDFGKRLQYEKFLLKLTEGKHESCIIITSQLPLKEFASVTTKLPIRSFKLEGLDVNAGMQILQEKGLTGQECKRLIENYSGNPSSLEALADRINRFFEGSVKTFFRYQTTMIDPQLETMLHQQFGQIGLLSNLQRQIMIYLAEEMSENSTPIQFSKLIDNLKERVDFKLSVFELITAIEVLEQRSLIEIAGKSNKREASYSLQVSIKKYILVDPLGLVHKIPDTIQTREVTLWATA, MSLSRLLPDPDVAGAWMVRVGDADQSWIDPDDPTRLEFDYMQRIADHLDVHRPAGERMRVIHLGGAGMCLARYVAATRPTSPQIVCEPDAELTAEVRLKAPLPVRSGIKVRPVDGRSGVAAMREDFADVVILDAFDGARVPGDLVTVEFFADVSRILHSDGIGVANLADSAPLVWTKRVVRSVKEVFSNVCMAAEPATLKGRRYGNIVLAASNGPLHEEDLTRRCSGAAVPFRFIAGDALAKLLADARPFHDGDTESSEGHHHHHH, MRLSFLTLQRRHALRDALRHKPAPRCRTQERTQSVQNGMPTRSVARLEHHHHHH, RYLLQRKASEALEVEVVDTWQADAVRDTRTLSGGESFLVSLALALALSDLVSHKTRIDSLFLDEGFGTLDSETLDTALDALDALNASGKTIGVISHVEAMKERIPVQIKVKKINGLGYSKLESAFAMK

Soluble on expression in E. coli, soluble:
MVAFTVDQMRSLMDKVTNVRNMSVIAHVDHGKSTLTDSLVQRAGIISAAKAGEARFTDTRKDEQERGITIKSTAISLYSEMSDEDVKEIKQKTDGNSFLINLIDSPGHVDFSSEVTAALRVTDGALVVVDTIEGVCVQTETVLRQALGERIKPVVVINKVDRALLELQVSKEDLYQTFARTVESVNVIVSTYADEVLGDVQVYPARGTVAFGSGLHGWAFTIRQFATRYAKKFGVDKAKMMDRLWGDSFFNPKTKKWTNKDTDAEGKPLERAFNMFILDPIFRLFTAIMNFKKDEIPVLLEKLEIVLKGDEKDLEGKALLKVVMRKFLPAADALLEMIVLHLPSPVTAQAYRAEQLYEGPADDANCIAIKNCDPKADLMLYVSKMVPTSDKGRFYAFGRVFAGTVKSGQKVRIQGPNYVPGKKDDLFIKAIQRVVLMMGRFVEPIDDCPAGNIIGLVGIDQFLLKTGTLTTSETAHNMKVMKFSVSPVVQVAVEVKNANDLPKLVEGLKRLSKSDPCVLTYMSESGEHIVAGTGELHLEICLQDLEHDHAGVPLKISPPVVAYRETVESESSQTALSKSPNKHNRIYLKAEPIDEEVSLAIENGIINPRDDFKARARIMADDYGWDVTDARKIWCFGPDGNGPNLVIDQTKAVQYLHEIKDSVVAAFQWATKEGPIFGEEMRSVRVNILDVTLHADAIHRGGGQIIPTMRRATYAGFLLADPKIQEPVFLVEIQCPEQAVGGIYSVLNKKRGQVVSEEQRPGTPLFTVKAYLPVNESFGFTGELRQATGGQAFPQMVFDHWSTLGSDPLDPTSKAGEIVLAARKRHGMKEEVPGWQEYYDKL, MREYKVVVLGSGGVGKSALTVQFVTGSFIEKYDPTIEDFYRKEIEVDSSPSVLEILDTAGTEQFASMRDLYIKNGQGFILVYSLVNQQSFQDIKPMRDQIIRVKRYERVPMILVGNKVDLEGEREVSYGEGKALAEEWSCPFMETSAKNKASVDELFAEIVRQMNYAAQPNGDEGCCSACVIL, SLEHFDDKSQLKRNGFYFSYNVDKENIEHWISAILFQVLKDKEDIVILSLGVDTLVGDSLGPLVGSILKRNGIPNVYGTLDRTVNASNIIKILDEIHERFKNPYILVVDAAVTAENNINDIVLRNGGFTPGFGVYRQLPTVGDFSLVGVVNKEDEREHNLIELLKKCRFDEVLKLARIISKILVLTFARMNKGDK, MAHHHHHHMAQCLTWQVLDQRQTGECLDAVDLEALRAVIKRIDDDRDGALLHSSERTATQVNVLLDLYGHLVLFAKASQFSPFKTSTLFGIVHRVHEASIADRLSRFHSYDLLRELVVRHSVHRPPYSTMVFSVREVQDIDTYMMSTYYRHYKMYVYCFVPREVASLRTVMLNDTAEAPPAQLPPLSAAIREDAWKEKMQEKVRTLEEAEMEEQLIVSDAVSEAQKNAATLDNSRFMAGISAQLEAIRDAVSTKSSERLDLIEEKLTAIEAKVNEAQSSGNRSRQGSRGSSKRK, MSLNNIDNIINFINKTPKSELHLHIEGSLEPELMFKLSKRNKIEIPFKSVEDIKSAYNFSNLDSFLKIYYEGSNVLITEEDFFDLTWEYILRCKKDNIVHTEIFFDPQSHTSRGIKFDIIINGIHKALAKANDEFGITSKIIMCFLRHLDEKLCFDVLKDAIQHKDKIIGVGLDSSEKGNPPKKFKRLFEEAIKEGFLTVAHAGEEGPPEYIWDSLNLLKVKRIDHGVQCLKDDDLVKNLKENNIPLTVCPLSNIKLCVFDKLENHNLKKMLEKGLRVMVNSDDPAYFGGYLNKNLIEISKALNLNLEQVKVLIQNSFKSSFLDKKSKSKWLSKVEGHHHHHH, MKKEIIVYTISDSLGETSQKLLAAASAQYPDISFLNRYNFSFVTTEEELLEILKDALKDKALVVSTLVSKQLITAAKEFSERTGLLYLDLMAPFFELIQAKAGVDPIEEPGRRHQLDRAYFDKISAIEFAVKYDDGKNPQGFLDSDILLLGVSRTSKTPVSMYLANQGYRVSNLPLIPEVPLPPILEEMDPQKMIGLVCSPETLGQIRSSRLASLGLGNETSYTNVERIEQELAYAEEIFAKYGIPVIDVTAKSVEETAFLIKEKLDERNLEHHHHHH, MGHHHHHHSHMGLQQEISLQPWCHHPAESCQTTTDMTERLSAEQIKEYKGVFEMFDEEGNGEVKTGELEWLMSLLGINPTKSELASMAKDVDRDNKGFFNCDGFLALMGVYHEKAQNQESELRAAFRVFDKEGKGYIDWNTLKYVLMNAGEPLNEVEAEQMMKEADKDGDRTIDYEEFVAMMTGESFKLIQ
